Measurements reported in the supplement of paper PMC10567573.

B1: WDR41 (parent)
chain: WTMQAYERNFWDPSPQLDTQQEIK
B2: SNX3 (parent)
chain: FLRQLPFRGDDGIFDDNFIEERKQ

Variants of: B1
Test: protein stability index of a GFP-peptide fusion (GPS, HEK-293T) (PSI 1-6); higher = more stable
Details: c terminus: a fixed tail appended
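Further: lentivirally expressed fusions sorted by FACS into six bins by GFP to DsRed ratio, PSI derived from sequencing read proportions per bin multiplied by bin number.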

Protein stability index of substitutions, site by site:
R8: C 2.59 | L 2.42 | T 2.95 | K 2.86 | P 3.77 | F 2.54 | A 2.52 | S 3.21
W11: E 4.57 | L 4.43 | C 3.66 | T 3.93 | A 4.26 | Y 3.5 | N 4.21 | G 3.94 | F 3.15 | V 3.54 | S 3.93
Q4: E 2.05 | T 1.95 | D 2.26 | C 2.27 | I 3.51 | G 3.34 | Y 2.42 | H 1.89 | N 1.67 | K 1.5 | A 2.23
P15: Y 1.81 | L 2.3 | F 1.96 | H 2.56 | V 2.19 | A 2.82 | D 3.03 | R 1.99 | C 2.3
N9: D 3.69 | R 1.63 | Y 2.08 | P 2.71 | Q 1.64 | G 2.64 | E 3.29 | K 1.94 | L 1.35
L17: H 3.32 | E 2.9 | K 2.84 | F 2.94 | N 2.8
E22: C 2.55 | H 1.8 | G 2.34 | L 2.07 | T 2.33 | V 2.36 | F 2.11 | Y 2.17
T19: D 2.19 | K 2.69 | E 2.37 | M 2.35 | I 2 | Y 1.62 | V 2.35 | P 2.21 | A 2.73 | C 2.19
F10: H 4.14 | R 3.55 | K 3.72 | E 3.92 | P 3.65 | S 3.95 | N 3.7
Q20: P 2.06 | L 2.19 | A 1.64 | G 2.19 | V 2.34 | R 2.44 | C 2.75
E7: A 2.02 | K 2.94 | G 2.7 | D 3.25 | C 1.77 | F 2.88 | I 1.92 | H 2.32 | T 2.72 | V 2.88 | S 2.45
Q21: D 2.1 | N 2.71 | F 1.93 | E 2.56 | A 2.39
P13: E 3.17 | S 3.46 | L 3.3 | Q 2.65 | R 3.01 | W 1.76 | C 2.31 | K 3.44 | Y 2.26 | I 2.6
D12: H 2.73 | S 2.51 | R 3.92 | N 3.51 | F 3.8 | P 3.31 | V 3.8
Q16: W 1.4 | R 2.14 | E 2.64 | A 2.24 | C 2.17 | I 2.33 | L 2.42
W1: H 3.13 | C 2.3 | I 3.35 | A 3.77 | L 3.9 | R 4.08 | E 4.41
T2: F 1.71 | G 2.93 | V 2.14 | I 1.62 | Q 2.89 | E 3.75 | M 2.14 | L 1.69 | R 2.91 | N 2.11
Y6: K 3.06 | P 2.95 | E 3.19 | F 2.58 | V 2.79 | D 3.34 | L 2.98 | G 2.86
A5: Y 2.18 | P 2.49 | S 2.75 | I 1.68 | D 3.33 | H 3.47 | L 2.66 | T 2.57 | N 3.18 | C 2.51
D18: F 2.14 | S 2.23 | C 1.95 | T 2.44 | V 2.63 | A 2.32 | H 2.2 | Y 1.97 | K 2.16
M3: V 3.16 | I 2.14 | Y 2.24 | T 2.86 | D 3.96 | H 2.63 | F 2.07 | K 2.96
K24: Q 2.44 | M 1.91 | W 1.46 | P 2.09 | N 2.31 | F 2.01 | T 2.63
I23: Y 2.32 | Q 3.15 | T 2.83 | F 2.43 | R 2.91 | A 2.99 | H 2.75 | E 3.26 | L 2.91
S14: L 2.7 | Q 2.76 | G 3.05 | V 2.58 | I 2.17 | M 2.47 | R 2.37 | N 2.74 | A 3.06 | P 3.16 | F 2.56 | Y 2.23 | T 2.89 | K 2.09 | H 1.94

Variants of: B2
Test: as above
Details: c terminus: a fixed tail appended

Protein stability index: each site, then its substitutions
L2: A 3.84 | D 4.72 | F 3.16 | P 4.66 | W 3.02 | T 4.04 | I 2.59 | G 4.59 | Q 3.07 | K 2.81 | M 4.01 | H 2.34 | Y 4.46 | N 4.08 | C 3.48 | S 4.56 | V 2.19 | E 4.87
F7: C 3.16 | M 3.32 | P 2.62 | N 3.87 | H 3.52 | S 3.76 | K 4 | E 4.77 | V 3.83 | Q 3.59 | I 2.83 | R 3.58 | T 4.35 | G 3.5 | W 3.05 | L 3.23 | D 4.03
P6: W 2.15 | R 3.1 | E 2.91 | M 1.74 | D 3.31 | S 3.26 | T 2.92 | A 2.22 | K 2.88 | N 3.02 | Y 2.9 | Q 3.32 | H 3.1 | C 2.49 | G 3.45 | F 2.14 | I 2.26 | V 2.29
F1: V 3.87 | A 4.63 | K 4.68 | W 3.03 | T 4.59 | Y 4.18 | L 3.83 | H 5.32 | M 3.56 | S 4.72 | R 4.59 | P 4.99 | I 3.58 | C 4.1 | N 4.44 | Q 4.96 | D 4.7
Q4: I 2.55 | P 1.95 | E 3.85 | W 2.7 | H 2.94 | V 3.07 | A 3.78 | T 3.08 | D 4.26 | C 2.83 | K 2.67 | F 2.44 | L 1.91 | N 2.13 | G 4.33 | R 2.27 | S 2.95 | Y 1.48 | M 3.22
R3: H 3.12 | S 3.1 | V 2.98 | G 3.1 | E 3.2 | W 1.83 | F 1.97 | K 3.43 | Y 2.28 | T 3.17 | N 3.48 | A 3.28 | M 2.76 | P 4.09 | I 2.42 | L 1.94 | C 2.71 | D 3.45 | Q 3.62
L5: N 3.78 | Y 2.78 | K 4.01 | I 2.18 | R 3.99 | P 3.78 | V 4.15 | M 3.39 | D 3.71 | G 3.74 | F 3.36 | H 3.22 | E 4.62 | Q 3.72 | W 1.96 | A 3.1 | S 4.01 | T 3.77
